Here are results for six molecules from US20250179151A1, “SPIKE FURIN CLEAVAGE IS A SARS-COV-2 TARGETING STRATEGY TO BREAK THE CHAIN OF INFECTION CYCLE” (University of Virginia Patent Foundation, priority 2022, published 2025).

Entries after “also recorded” stand apart in the source; their conditions may differ. Peptide text beside a SMILES is read from it. * marks the point of attachment. Cbz = O=C(OCc1ccccc1)*

Test [1] relates to pseudoviral spike S0 and S2. Format: cell-based, SARS-CoV-2.
A further test deals with spike S0. It is filed as cell-based, SARS-CoV-2.
Test [2] deals with T1, furin (Homo sapiens, UniProt P09958). Format: biochemical. Particulars: peptide inserted in rDR5-IgG4-Fc; 10 ng recombinant furin.
T1 sequence (P09958 108-794): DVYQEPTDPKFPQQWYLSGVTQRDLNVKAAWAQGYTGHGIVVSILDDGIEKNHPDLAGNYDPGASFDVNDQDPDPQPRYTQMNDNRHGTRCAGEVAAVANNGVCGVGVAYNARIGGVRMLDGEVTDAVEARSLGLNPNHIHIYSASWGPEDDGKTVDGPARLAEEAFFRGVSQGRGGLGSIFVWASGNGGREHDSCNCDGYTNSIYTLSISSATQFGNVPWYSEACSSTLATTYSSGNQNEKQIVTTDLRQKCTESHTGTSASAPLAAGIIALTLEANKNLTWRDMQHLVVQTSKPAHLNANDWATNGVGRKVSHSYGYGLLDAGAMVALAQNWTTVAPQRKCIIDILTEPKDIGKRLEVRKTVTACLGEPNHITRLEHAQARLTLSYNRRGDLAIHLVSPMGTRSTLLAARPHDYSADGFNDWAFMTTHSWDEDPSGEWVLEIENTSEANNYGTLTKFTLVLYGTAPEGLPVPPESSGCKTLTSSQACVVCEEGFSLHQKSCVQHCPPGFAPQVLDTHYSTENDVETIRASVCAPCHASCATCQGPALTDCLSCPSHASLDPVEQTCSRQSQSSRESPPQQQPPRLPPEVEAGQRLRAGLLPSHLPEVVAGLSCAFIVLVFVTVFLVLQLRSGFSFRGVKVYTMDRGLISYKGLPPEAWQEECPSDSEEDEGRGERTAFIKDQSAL
In another test the test system is spike S1/S2 cleavage. Format: cell-based, SARS-CoV-2.
The subject of the next test is 293-ACE2 cells. It is filed as cell-based. Particulars: spike transfected 293-ACE2 cells, 24 hours.
The next test relates to spike cleavage at S1/S2. Format: cell-based, SARS-CoV-2.
Test [3] has as its target T2, IgG4-Fc tagged rFOLR1 antigen (UniProt P15328 25-233).
T2 construct: extracellular domain; also called recombinant IgG4-Fc FOLR1
Put plainly: ELISA, IgG4-Fc tagged rFOLR1 coated, detection with anti-IgG1-Fc HRP. On the technique in general: In an ELISA, binding on a coated surface is turned into a signal by an enzyme label.

For test [4], the system named is 293-ACE2 and RFP-stable HCC-1806 cells. The experiment in a line: Syncytia in Spike-EGFP transfected co-culture of 293-ACE2 and HCC-1806 cells. It is filed as cell-based. The following applies: co-cultures, 100 μg antibody.
The next test deals with spike S0 and S2. It is filed as cell-based, SARS-CoV-2.
For test [5], the target named is T1, furin. The experiment in a line: Furin protease activity assay (fluorogenic substrate). Particulars: particularly at higher doses; compared with farletuzumab-cFuG1. It is filed as biochemical. The method, then: (§1) FIGS. 2A-2C. Furin inhibitory function and flexibility of Fc-extended FuG1 peptide strategy. (FIG. 2A) The binding kinetics of immobilized biotinylated furin against indicated farletuzumab-FuG1, farletuzumab-cFuG1, and Farletuzumab-IgG1 were measured using BLI. (FIGS. 2B and 2C) FuG1 and cFuG1 antibodies were tested using a competitive inhibitory furin assay kit, which measures fluorescent signal as an indicator of the protease activity kinetics.
Furin protease activity assay. Different concentrations of farletuzumab-FuGi, farletuzumab-cFuGi (25-250 ng) or furin assay buffer (negative control) were pre-incubated with 25 ng of furin (50 μl, 0.5 ng/μl in furin assay buffer) in a total reaction volume of 100 μl for 10 minutes at room temperature. […] The fluorescence intensity of the reaction mixture was monitored at excitation wavelength of 380 nm and detection of emission at wavelength 460 nm using 96 well microplate reader (BioTek Instruments Inc, USA). […] For kinetic study, fluorescence was measured immediately after adding the protease substrate and data was recorded every 1 minute for 15 min at Ex/Em=380 nm/460 nm.
To confirm furin binding and competing function, farletuzumab-FuG1 and farletuzumab-cFuG1 were expressed in the presence of furin inhibitors. Purified antibodies were analyzed for their Fc-extended peptide binding to biotinylated furin using BLI. […]

For test [6], the target named is T1, furin. The experiment in a line: BLI binding kinetics against immobilized biotinylated furin. Particulars: compared to cFuG1. The method, then: as §1
Binding studies by BioLayer Interferometry (BLI). Binding measurements were performed using Bio-Layer Interferometry on FortéBio Red Octet 96 instrument (Pall) as described in Shivange et al., 2018. Biotin-Streptavidin based sensors were employed for the studies. Recombinant Fc linked DR5 variants were biotinylated using EZ-Link Sulfo-NHS—SS-Biotin (Thermo Scientific 21331) following the manufacturer's instructions. Unreacted Sulfo-NHS—SS-Biotin reaction was quenched by 50 mM Tris-Cl pH 7.4 and removed via dialyzing against PBS. For binding analysis biotinylated antigen (1 μg/mL) were immobilized on streptavidin (SA) biosensors (Pall) for 300 sec to ensure saturation. Associate and dissociation reactions were set in 96-well microplates filled with 200 μL of unbiotinylated DR5 agonist for 900 seconds. All interactions were conducted at 37° C. in PBS buffer containing 2 mg/ml BSA. These binding observations were also confirmed by biotinylating the agonist antibodies and probed against unbiotinylated DR5-Fc variants. Kinetic parameters (KON and KOFF) and affinities (KD) were analyzed using Octet data analysis software, version 9.0 (Pall).
To confirm furin binding and competing function, farletuzumab-FuG1 and farletuzumab-cFuG1 were expressed in the presence of furin inhibitors. Purified antibodies were analyzed for their Fc-extended peptide binding to biotinylated furin using BLI. […] The latter indicated a potential higher competitive furin occupancy time of FuG1 peptide with the increased antibody concentration (Hoare et al., 2020).

T2 sequence (P15328 25-233 limits assumed): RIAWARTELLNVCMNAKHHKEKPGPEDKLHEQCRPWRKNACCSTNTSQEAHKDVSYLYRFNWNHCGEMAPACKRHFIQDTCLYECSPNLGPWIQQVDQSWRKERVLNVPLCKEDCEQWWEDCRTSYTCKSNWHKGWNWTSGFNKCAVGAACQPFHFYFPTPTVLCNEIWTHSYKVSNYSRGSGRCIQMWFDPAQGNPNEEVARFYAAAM

For the molecule `CC(C)C[C@@H](C=O)NC(=O)[C@H](CC(C)C)NC(=O)[C@H](CC(C)C)NC(=O)OCc1ccccc1` [MG132] (Cbz-Leu-Leu-Leu-aldehyde), in [1], the “pseudoviral S2 fragment generation” value is given as “remained inhibited” and the “pseudoviral spike S0 destabilization” value was “rescued spike S0 destabilization”. In the test on spike S0, the “furin processing of WT and ΔRRAR spike” value is “did not interfere”; the “rescue of spike S0 loss” value is reported as “partial rescue of spike S0 loss”; the “total spike S0 signal” value is “at least two-fold higher; also recorded: significantly increased”.
As to EGGGSGRERKARGGCPGS [FuG1 peptide], at furin [2], the “cleavage by recombinant furin in vitro” value was “not cleaved”.
In the case of `C[C@H]1CCC/C=C/[C@@H]2C[C@H](O)C[C@H]2[C@H](O)/C=C/C(=O)O1` [Bfa, Brefeldin-A], the “spike S1/S2 cleavage” value with spike S1/S2 cleavage was “completely inhibited”.

B1: 6.29-IgG1: ACE-2-RBD neutralizing antibody (Rogers et al., 2020); SEQ ID NOs: 11 and 15 (protein)
light: DIQLTQSPSSLSASVGDRVTITCRASQTASSYLNWYQQKPGKAPNLLIYAASSLQSGVPSRFSGSGSVTDFTLTISSLQPEDFATYYCQQSYSTPPTFGQGTKVDIKRTVAAPSVFIFPPSDEQLKSGTASVVCLLNNFYPREAKVQWKVDNALQSGNSQESVTEQDSKDSTYSLSSTLTLSKADYEKHKVYACEVTHQGLSSPVTKSFNRGEC
heavy: QVQLVQSGSELKKPGASVKVSCKASGYTFATYALNWVRQAPGQGLEWMGWVNTNTGSPTYAQGFTGRFVFSFDTSVSTAYLQIRTLKAEDTAVYYCAVYYYDSGSPGWFDPWGQGTLVTVSSASTKGPSVFPLAPSSKSTSGGTAALGCLVKDYFPEPVTVSWNSGALTSGVHTFPAVLQSSGLYSLSSVVTVPSSSLGTQTYICNVNHKPSNTKVDKKVEPKSCDKTHTCPPCPAPEAAGGPSVFLFPPKPKDTLMISRTPEVTCVVVDVSHEDPEVKFNWYVDGVEVHNAKTKPREEQYNSTYRVVSVLTVLHQDWLNGKEYKCKVSNKALPAPIEKTISKAKGQPREPQVYTLPPSREEMTKNQVSLTCLVKGFYPSDIAVEWESNGQPENNYKTTPPVLDSDGSFFLYSKLTVDKSRWQQGNVFSCSVMHEALHNHYTQKSLSLSLGK
As to B1, the syncytia blockade entry with 293-ACE2 cells is “significantly more effective; also recorded: significantly effective”. The “inhibition of spike cleavage at S1/S2” value with spike cleavage at S1/S2 is reported as “non-inhibitory”.

B2: farletuzumab-FuG1 (antibody)
heavy: EVQLVESGGGVVQPGRSLRLSCSASGFTFSGYGLSWVRQAPGKGLEWVAMISSGGSYTYYADSVKGRFAISRDNAKNTLFLQMDSLRPEDTGVYFCARHGDDPAWFAYWGQGTPVTVSSASTKGPSVFPLAPSSKSTSGGTAALGCLVKDYFPEPVTVSWNSGALTSGVHTFPAVLQSSGLYSLSSVVTVPSSSLGTQTYICNVNHKPSNTKVDKKVEPKSCDKTHTCPPCPAPEAAGGPSVFLFPPKPKDTLMISRTPEVTCVVVDVSHEDPEVKFNWYVDGVEVHNAKTKPREEQYNSTYRVVSVLTVLHQDWLNGKEYKCKVSNKALPAPIEKTISKAKGQPREPQVYTLPPSREEMTKNQVSLTCLVKGFYPSDIAVEWESNGQPENNYKTTPPVLDSDGSFFLYSKLTVDKSRWQQGNVFSCSVMHEALHNHYTQKSLSLSLPGKEGGGSGRERKARGGCPGS
light: DIQLTQSPSSLSASVGDRVTITCSVSSSISSNNLHWYQQKPGKAPKPWIYGTSNLASGVPSRFSGSGSGTDYTFTISSLQPEDIATYYCQQWSSYPYMYTFGQGTKVEIKRTVAAPSVFIFPPSDEQLKSGTASVVCLLNNFYPREAKVQWKVDNALQSGNSQESVTEQDSKDSTYSLSSTLTLSKADYEKHKVYACEVTHQGLSSPVTKSFNRGEC
notes: also called Farle-FuG1; Farletuzumab-FuG1 antibody
For the molecule B2, the binding result in test [3] is “binds”.

B3: farletuzumab-FuG1: anti-FOLR1 farletuzumab with FuG1 Fc-extended peptide (SEQ ID NO: 44) (antibody)
heavy: EVQLVESGGGVVQPGRSLRLSCSASGFTFSGYGLSWVRQAPGKGLEWVAMISSGGSYTYYADSVKGRFAISRDNAKNTLFLQMDSLRPEDTGVYFCARHGDDPAWFAYWGQGTPVTVSSASTKGPSVFPLAPSSKSTSGGTAALGCLVKDYFPEPVTVSWNSGALTSGVHTFPAVLQSSGLYSLSSVVTVPSSSLGTQTYICNVNHKPSNTKVDKKVEPKSCDKTHTCPPCPAPEAAGGPSVFLFPPKPKDTLMISRTPEVTCVVVDVSHEDPEVKFNWYVDGVEVHNAKTKPREEQYNSTYRVVSVLTVLHQDWLNGKEYKCKVSNKALPAPIEKTISKAKGQPREPQVYTLPPSREEMTKNQVSLTCLVKGFYPSDIAVEWESNGQPENNYKTTPPVLDSDGSFFLYSKLTVDKSRWQQGNVFSCSVMHEALHNHYTQKSLSLSLPGKEGGGSGRERKARGGCPGS
light: DIQLTQSPSSLSASVGDRVTITCSVSSSISSNNLHWYQQKPGKAPKPWIYGTSNLASGVPSRFSGSGSGTDYTFTISSLQPEDIATYYCQQWSSYPYMYTFGQGTKVEIKRTVAAPSVFIFPPSDEQLKSGTASVVCLLNNFYPREAKVQWKVDNALQSGNSQESVTEQDSKDSTYSLSSTLTLSKADYEKHKVYACEVTHQGLSSPVTKSFNRGEC
Turning to B3, the syncytia load reduced in [4] is listed as ~30%. In the test on spike S0 and S2, the “S0 and S2 in co-culture lysates” value is recorded as “only partially reduced S2 conversion”. For the same molecule, in the test with furin [5], the “inhibition of furin protease activity” value was “significant inhibition”. In the test with furin [6], the “furin association rate (KON)” value is “lower”; the “furin binding affinity (KD)” value is recorded as “lower”; the “furin dissociation rate (KOFF), fold reduced” value is listed as ~10 fold.
